B6: Fc-TEM1 (soluble recombinant endosialin: full-length TEM1 extracellular domain fused to monomeric murine IgG2b Fc) (Fc fusion, human)
chain: QDPWAAEPRAACGPSSCYALFPRRRTFLEAWRACRELGGDLATPRTPEEAQRVDSLVGAGPASRLLWIGLQRQARQCQLQRPLRGFTWTTGDQDTAFTNWAQPASGGPCPAQRCVALEASGEHRWLEGSCTLAVDGYLCQFGFEGACPALQDEAGQAGPAVYTTPFHLVSTEFEWLPFGSVAAVQCQAGRGASLLCVKQPEGGVGWSRAGPLCLGTGCSPDNGGCEHECVEEVDGHVSCRCTEGFRLAADGRSCEDPCAQAPCEQQCEPGGPQGYSCHCRLGFRPAEDDPHRCVDTDECQIAGVCQQMCVNYVGGFECYCSEGHELEADGISCSPAGAMGAQASQDLGDELLDDGEDEEDEDEAWKAFNGGWTEMPGILWMEPTQPPDFALAYRPSFPEDREPQIPYPEPTWPPPLSAPRVPYHSSVLSVTRPVVVSATHPTLPSAHQPPVIPATHPALSRDHQIPVIAANYPDLPSAYQPGILSVSHSAQPPAHQPPMISTKYPELFPAHQSPMFPDTRVAGTQTTTHLPGIPPNHAPLVTTLGAQLPPQAPDALVLRTQATQLPIIPTAQPSLTTTSRSPVSPAHQISVPAATQPAALPTLLPSQSPTNQTSPISPTHPHSKAPQIPREDGPSPKLALWLPSPAPTAAPTALGEAGLAEHSQRDDRWLDDDD
notes: extracellular domain; Monomeric secreted fusion protein made in CHO cells; also called TEM1-Fcγ; not shown: murine IgG2b Fcγ domain (hinge through CH3), modified: the four cysteine residues responsible for inter-heavy chain disu

Assay [1] has as its target B6. Nature of the assay: ELISA on coated FN fragments (FIG. 7A).
The target in assay [2] is B6. Nature of the assay: antigen-specific ELISA, coated at 2 ug/ml (FIG. 4B). (In general: An ELISA detects its analyte on a solid surface through an enzyme-linked reagent.)
The target of assay [3] is B6. Nature of the assay: antigen-specific ELISA, coated at 0.2 ug/ml (FIG. 4B).
Assay [4] deals with T1, murine TEM-1 (in mouse 2H11 cells) (mouse, UniProt Q91V98 18-765).
T1 construct: Endogenous protein in lysate of mouse 2H11 cells, on a Western blot; also called murine endosialin
T1 sequence: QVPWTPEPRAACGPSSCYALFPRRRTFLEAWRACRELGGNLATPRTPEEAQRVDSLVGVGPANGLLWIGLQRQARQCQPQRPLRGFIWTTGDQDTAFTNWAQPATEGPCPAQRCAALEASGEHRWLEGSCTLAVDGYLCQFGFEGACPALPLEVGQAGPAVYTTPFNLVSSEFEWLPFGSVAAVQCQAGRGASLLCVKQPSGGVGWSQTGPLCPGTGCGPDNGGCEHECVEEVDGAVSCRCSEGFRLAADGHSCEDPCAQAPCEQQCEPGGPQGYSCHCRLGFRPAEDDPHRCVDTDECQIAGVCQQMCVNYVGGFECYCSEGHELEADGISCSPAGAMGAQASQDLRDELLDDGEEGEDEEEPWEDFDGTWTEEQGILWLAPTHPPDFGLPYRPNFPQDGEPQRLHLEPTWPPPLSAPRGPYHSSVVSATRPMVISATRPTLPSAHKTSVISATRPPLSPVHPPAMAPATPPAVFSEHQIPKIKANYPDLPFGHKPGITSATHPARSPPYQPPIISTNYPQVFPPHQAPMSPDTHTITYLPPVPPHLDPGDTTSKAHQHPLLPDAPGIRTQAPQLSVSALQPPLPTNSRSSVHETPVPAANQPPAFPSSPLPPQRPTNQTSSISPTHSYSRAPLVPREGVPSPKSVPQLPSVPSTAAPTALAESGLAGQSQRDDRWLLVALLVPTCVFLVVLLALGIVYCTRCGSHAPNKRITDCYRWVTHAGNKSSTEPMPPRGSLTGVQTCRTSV
Nature of the assay: Western blot of cell lysates (FIG. 15). For orientation: A western blot detects proteins with antibodies after separation by electrophoresis.

Assay [5] addresses T2, 120 kDa fibronectin fragment containing the cell attachment domain (UniProt P02751-1 722-1635, limits assumed).
T2 construct: domain: 120 kDa fragment containing the cell attachment domain; Bought fragment; also called the 120 kDa fragment; 120 kDa cell attachment FN-fragment
Kind of assay: ELISA on coated FN fragments (FIG. 7A).

T2 sequence (P02751 other isoform, or with tags, fused parts or gaps limits assumed): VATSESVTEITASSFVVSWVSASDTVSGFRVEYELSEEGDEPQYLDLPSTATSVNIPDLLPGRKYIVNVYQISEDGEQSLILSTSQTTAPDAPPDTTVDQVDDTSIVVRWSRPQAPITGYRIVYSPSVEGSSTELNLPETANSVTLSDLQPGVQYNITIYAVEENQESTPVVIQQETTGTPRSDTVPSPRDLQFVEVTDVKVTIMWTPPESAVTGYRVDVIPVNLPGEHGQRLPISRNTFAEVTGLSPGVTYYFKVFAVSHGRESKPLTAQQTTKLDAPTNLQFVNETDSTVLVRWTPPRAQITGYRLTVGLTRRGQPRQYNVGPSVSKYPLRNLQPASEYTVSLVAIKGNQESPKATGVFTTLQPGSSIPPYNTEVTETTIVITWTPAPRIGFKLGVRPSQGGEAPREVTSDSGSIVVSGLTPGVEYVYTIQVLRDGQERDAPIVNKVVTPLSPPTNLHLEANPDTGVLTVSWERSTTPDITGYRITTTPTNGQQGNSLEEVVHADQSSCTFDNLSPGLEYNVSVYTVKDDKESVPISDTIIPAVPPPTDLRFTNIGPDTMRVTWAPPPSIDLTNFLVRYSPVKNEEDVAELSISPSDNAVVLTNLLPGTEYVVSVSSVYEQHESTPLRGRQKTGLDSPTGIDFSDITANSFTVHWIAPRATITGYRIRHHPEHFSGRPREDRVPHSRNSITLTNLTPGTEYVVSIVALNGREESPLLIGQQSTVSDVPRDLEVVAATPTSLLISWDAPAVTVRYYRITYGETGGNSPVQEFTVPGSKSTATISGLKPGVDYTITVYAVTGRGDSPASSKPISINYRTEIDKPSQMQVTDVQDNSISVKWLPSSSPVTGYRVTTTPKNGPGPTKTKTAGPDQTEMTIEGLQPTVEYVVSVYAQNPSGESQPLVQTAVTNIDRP

B1: recombinant human fibronectin fragment 4 (Fn4) (other)
chain: VTDATETTITISWRTKTETITGFQVDAVPANGQTPIQRTIKPDVRSYTITGLQPGTDYKIYLYTLNDNARSSPVVIDASTAIDAPSNLRFLATTPNSLLVSWQPPRARITGYIIKYEKPGSPPREVVPRPRPGVTEATITGLEPGTEYTIYVIALKNNQKSEPLIGRKKTDELPQLVTLPHPNLHGPEILDVPSTVQKTPFVTHPGYDTGNGIQLPGTSGQQPSVGQQMIFEEHGFRRTTPPTTATPIRHRPRPYPPNVGEEIQIGHIPREDVDYHLYPHGPGLNPNASTGQEALSQTTISWAPFQDTSEYIISCHPVGTDEEPLQFRVPGTSTSATLTGLTRGATYNIIVEALKDQQRHKVREEVVTVGNSVNEGLNQPTDDSCFDPYTVSHYAVGDEWERMSESGFKLLCQCLGFGSGHFRCDSSRWCHDNGVNYKIGEKWDRQGENGQMMSCTCLGNGKGEFKCDPHEATCYDDGKTYHVGEQWQKEYLGAICSCTCFGGQRGWRCDNCRRPGGEPSPEGTTGQSYNQYSQRYHQRTNTNVNCPIECFMPLDVQADREDSRE
notes: Bought (R&D Systems)
B1: the binding result in assay [1] is “no binding (tested: 1.25 ug/ml)”.

B2: ovalbumin (OVA) (other, UniProt P01012 2-386, looked up)
chain: GSIGAASMEFCFDVFKELKVHHANENIFYCPIAIMSALAMVYLGAKDSTRTQINKVVRFDKLPGFGDSIEAQCGTSVNVHSSLRDILNQITKPNDVYSFSLASRLYAEERYPILPEYLQCVKELYRGGLEPINFQTAADQARELINSWVESQTNGIIRNVLQPSSVDSQTAMVLVNAIVFKGLWEKAFKDEDTQAMPFRVTEQESKPVQMMYQIGLFRVASMASEKMKILELPFASGTMSMLVLLPDEVSGLEQLESIINFEKLTEWTSSNVMEERKIKVYLPRMKMEEKYNLTSVLMAMGITDVFSSSANLSGISSAESLKISQAVHAAHAEINEAGREVVGSAEAGVDAASVSEEFRADHPFLFCIKHIATNAVLFFGRCVSP
Regarding B2, in assay [2], the binding result is listed as “no binding (tested: 5, 10, 50 ug/ml)”.

B3: human mesothelin (other, UniProt Q13421 296-598, looked up)
chain: EVEKTACPSGKKAREIDESLIFYKKWELEACVDAALLATQMDRVNAIPFTYEQLDVLKHKLDELYPQGYPESVIQHLGYLFLKMSPEDIRKWNVTSLETLKALLEVNKGHEMSPQVATLIDRFVKGRGQLDKDTLDTLTAFYPGYLCSLSPEELSSVPPSSIWAVRPQDLDTCDPRQLDVLYPKARLAFQNMNGSEYFVKIQSFLGGAPTEDLKALSQQNVSMDLATFMKLRTDAVLPLTVAEVQKLLGPHVEGLKAEERHRPVRDWILRQRQDDLDTLGLGLQGGIPNGYLVLDLSMQEALS
Regarding B3, the binding result in assay [3] is on record as “no binding (tested: 5, 10, 50 ug/ml)”.

B4: M4.1 (humanized antibody to human endosialin) (antibody, human IgG1, kappa)
heavy: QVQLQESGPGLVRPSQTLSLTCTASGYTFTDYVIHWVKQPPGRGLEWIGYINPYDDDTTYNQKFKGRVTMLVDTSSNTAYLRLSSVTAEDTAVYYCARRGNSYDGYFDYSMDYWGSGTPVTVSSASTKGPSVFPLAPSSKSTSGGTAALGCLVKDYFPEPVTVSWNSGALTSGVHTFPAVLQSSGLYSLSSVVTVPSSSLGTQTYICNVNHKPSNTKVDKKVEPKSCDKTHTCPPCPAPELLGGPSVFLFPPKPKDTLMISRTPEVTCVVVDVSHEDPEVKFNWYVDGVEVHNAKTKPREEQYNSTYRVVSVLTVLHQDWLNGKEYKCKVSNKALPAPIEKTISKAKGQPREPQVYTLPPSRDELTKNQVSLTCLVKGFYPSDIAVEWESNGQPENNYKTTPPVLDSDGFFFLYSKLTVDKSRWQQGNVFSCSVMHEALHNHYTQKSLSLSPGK
light: DIQMTQSPSSLSASVGDRVTITCRASQNVGTAVAWLQQTPGKAPKLLIYSASNRYTGVPSRFSGSGSGTDYTFTISSLQPEDIATYYCQQYTNYPMYTFGQGTKVQIKRTVAAPSVFIFPPSDEQLKSGTASVVCLLNNFYPREAKVQWKVDNALQSGNSQESVTEQDSKDSTYSLSSTLTLSKADYEKHKVYACEVTHQGLSSPVTKSFNRGEC
notes: also called antibody M4.1
In the case of B4, the binding result in assay [4] is recorded as “no binding (tested: 3.3 ug/mL)”.

B5: recombinant human fibronectin fragment 2 (Fn2) (other)
chain: SSSGPVEVFITETPSQPNSHPIQWNAPQPSHISKYILRWRPKNSVGRWKEATIPGHLNSYTIKGLKPGVVYEGQLISIQQYGHQEVTRFDFTTTSTSTPVTSNTVTGETTPFSPLVATSESVTEITASSFVVSWVSASDTVSGFRVEYELSEEGDEPQYLDLPSTATSVNIPDLLPGRKYIVNVYQISEDGEQSLILSTSQTTAPDAPPDPTVDQVDDTSIVVRWSRPQAPITGYRIVYSPSVEGSSTELNLPETANSVTLSDLQPGVQYNITIYAVEENQESTPVVIQQETTGTPRSDTVPSPRDLQFVEVTDVKVTIMWTPPESAVTGYRVDVIPVNLPGEHGQRLPISRNTFAEVTGLSPGVTYYFKVFAVSHGRESKPLTAQQTTKLDAPTNLQFVNETDSTVLVRWTPPRAQITGYRLTVGLTRRGQPRQYNVGPSVSKYPLRNLQPASEYTVSLVAIKGNQESPKATGVFTTLQPGSSIPPYNTEVTETTIVITWTPAPRIGFKLGVRPSQGGEAPREVTSDSGSIVVSGLTPGVEYVYTIQVLRDGQERDAPIVNKVVTPLSPPTNLHLEANPDTGVLTVSWERSTTPDITGYRITTTPTNGQQGNSLEEVVHADQSSCTFDNLSPGLEYNVSVYTVKDDKESVPISDTIIP
notes: Bought (R&D Systems)
As to B5, the binding result in assay [1] is listed as “no binding (tested: 1.25 ug/ml)”.

As to B6, in assay [5], the binding result is “no binding (tested: 1.25 ug/ml)”.
